Assay results: paper PMC4175184, “Structure and function of cohesin’s Scc3/SA regulatory subunit” (Febs Letters, 2014)

Biological target: T1, S. cerevisiae Scc3, full-length protein (S. cerevisiae, UniProt P40541 1-1150)
T1 construct: Scc3, S. cerevisiae (UniProt SCC3_YEAST, P40541), full-length / intact protein; also called Sc Scc3; intact Scc3 protein; source: E. coli BL21(DE3) RIPL, purified (Talon beads, Superdex 200)
T1 sequence (looked up): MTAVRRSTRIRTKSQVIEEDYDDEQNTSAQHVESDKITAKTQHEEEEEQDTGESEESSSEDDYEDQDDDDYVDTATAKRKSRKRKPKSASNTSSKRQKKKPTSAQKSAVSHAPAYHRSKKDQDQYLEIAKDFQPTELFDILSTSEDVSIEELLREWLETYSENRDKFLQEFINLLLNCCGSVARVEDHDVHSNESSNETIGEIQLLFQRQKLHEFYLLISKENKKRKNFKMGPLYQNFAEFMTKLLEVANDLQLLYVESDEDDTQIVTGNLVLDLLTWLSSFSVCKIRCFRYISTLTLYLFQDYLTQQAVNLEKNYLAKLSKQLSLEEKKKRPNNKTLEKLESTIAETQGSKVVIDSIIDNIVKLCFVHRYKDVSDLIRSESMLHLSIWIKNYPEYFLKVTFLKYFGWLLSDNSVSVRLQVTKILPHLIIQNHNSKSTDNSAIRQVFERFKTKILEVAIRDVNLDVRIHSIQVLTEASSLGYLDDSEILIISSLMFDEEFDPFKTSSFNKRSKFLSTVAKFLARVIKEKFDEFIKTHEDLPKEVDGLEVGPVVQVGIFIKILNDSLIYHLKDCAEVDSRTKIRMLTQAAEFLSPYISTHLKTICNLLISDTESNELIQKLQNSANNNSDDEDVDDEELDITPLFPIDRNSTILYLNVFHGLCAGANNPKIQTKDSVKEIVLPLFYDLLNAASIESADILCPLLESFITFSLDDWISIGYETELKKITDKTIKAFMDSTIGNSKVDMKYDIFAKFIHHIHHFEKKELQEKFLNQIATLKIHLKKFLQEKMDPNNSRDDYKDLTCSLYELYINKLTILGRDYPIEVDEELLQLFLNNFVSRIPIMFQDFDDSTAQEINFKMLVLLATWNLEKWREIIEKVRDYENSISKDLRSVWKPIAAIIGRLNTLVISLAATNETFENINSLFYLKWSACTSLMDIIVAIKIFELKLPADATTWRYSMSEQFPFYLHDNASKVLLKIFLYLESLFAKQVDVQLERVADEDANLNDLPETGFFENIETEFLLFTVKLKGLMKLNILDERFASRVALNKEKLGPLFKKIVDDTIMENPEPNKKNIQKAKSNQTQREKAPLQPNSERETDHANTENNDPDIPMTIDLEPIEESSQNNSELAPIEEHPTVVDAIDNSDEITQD
Assay: pull-down; two differently tagged versions of Scc1 (259–451) in the presence of intact Scc3 protein; 5 μM of each in TAP buffer, resin 2 h at 4 °C (Fig. 2-fig^1C)
Details: both partners purified

B1: S. cerevisiae Scc1 (259–451), two differently tagged versions (domain or fragment, UniProt Q12158 259-451, looked up)
chain: DDDNSVEQGRRLGESIMSEEPTDFGFDLDIEKEAPAGNIDTITDAMTESQPKQTGTRRNSKLLNTKSIQIDEETENSESIASSNTYKEERSNNLLTPQPTNFTTKRLWSEITESMSYLPDPILKNFLSYESLKKRKIHNGREGSIEEPELNVSLNLTDDVISNAGTNDNSFNELTDNMSDFVPIDAGLNEAPF
notes: source: E. coli BL21(DE3) RIPL, purified (Talon beads, Superdex 200)
- binding result: binds
